Reference: the DeepSol protein solubility set

Test: soluble on expression in E. coli; label from the status in PepcDB or PDB records

Sequence	soluble on expression in E. coli
MKIGIIGATGKAGSRILKEALDRGHEVTAIVRNAAKITEENVKVLEKDVFSLTSNDLQAFDVVVNAFGAPAGHDHLHVDAGNVLIEAMKGAPNTKLVVVGGAGSLFVDEEKTTRVFETPGFPEEYLATAQNQGKNLEILQQTNDITWTFISPSALFALGKRTGSYKAGKDNLLVNAKGDSYVSYEDFAVAALDEIENPKHVNERFTVVSEAELEHHHHHH	soluble
MKIGIVTGIPGVGKSTVLAKVKEILDNQGINNKIINYGDFMLATALKLGYAKDRDEMRKLSVEKQKKLQIDAAKGIAEEARAGGEGYLFIDTHAVIRTPSGYLPGLPSYVITEINPSVIFLLEADPKIILSRQKRDTTRNRNDYSDESVILETINFARYAATASAVLAGSTVKVIVNVEGDPSIAANEIIRSMK	soluble
MKIHHIGPMGVNPYQRQLAKTERLAAEKAPRDQVEISKEAKELQEAASWEQARQAKLEELRQQIENGAYQVDPRAVAKRMIEYYRNHR	not soluble
MKIIDCRNMACPAPVVTTKRALEEAGGETVQVLVDPGAPRENVIRFAENRGFAVSEVEADNGFALTITSPGSAPVEPVRTVAGKGGKTVMLVASDRLGDGPEELGRLLMKNFIITLLDLAELPDRMLFVNTGVLLTTEGSEVLEALQSLGNRGVEVLSCGVCLDFFHRKEKLVAGSVTNMFTIAESLLGAGSVVRLLEHHHHHH	soluble
MKIIKGAFPVLITPMDEFQEINWNGVKQNVNYFIEQKVAGIIINGSTGEFVSLSKEERFKMVETVLKEVNGRIPVIVGTAAETTKETIEFTKHAETHGADCALIINSYYCKPKEEEIYFHFKEISNAVNIPIMLYNNPFTSGVDMSTELMLRIGKDCENVTHIKESSGDIRKARDLVRQGEGAFQVFCGSEDLVMESYLVGATGWVSVAGNVVPGLVTKMYEHFQNGELEKAWEINDAILPLCEFLEGSGKYVQIVKRSMELQGQAGGPSRYPRLGLTEEEDQKLQAIISKIAAHAAV	not soluble
MKIKTRFAPSPTGYLHVGGARTALYSWLFARNHGGEFVLRIEDTDLERSTPEAIEAIMDGMNWLSLEWDEGPYYQTKRFDRYNAVIDQMLEEGTAYKCYCSKERLEALREEQMAKGEKPRYDGRCRHSHEHHADDEPCVVRFANPQEGSVVFDDQIRGPIEFSNQELDDLIIRRTDGSPTYNFCVVVDDWDMEITHVIRGEDHINNTPRQINILKALKAPVPVYAHVSMINGDDGKKLSKRHGAVSVMQYRDDGYLPEALLNYLVRLGWSHGDQEIFTREEMIKYFTLNAVSKSASAFNTDKLLWLNHHYINALPPEYVATHLQWHIEQENIDTRNGPQLADLVKLLGERCKTLKEMAQSCRYFYEDFAEFDADAAKKHLRPVARQPLEVVRDKLAAITDWTAENVHHAIQATADELEVGMGKVGMPLRVAVTGAGQSPALDVTVHAIGKTRSIERINKALDFIAERENQQ	soluble
MKILLFICGEGLGHTGRCLALGKEFLAAGHEVNFGAYGYSKGLVQKTGYSAYEIPSEIKLAGEAGTFDIRKSIKETLNNLSPSGFRKILRLIEKLDPDVVLSDGYYTGILAAQKRKVPVYFIGHQFNMEEFFWKKGLFAGIAGIFVKRFYNYVFSSVDGIIVPDYPLPYSVNRKNFTISRAVNDNIFFSGPLIRCRYQEAGEKAFKRPNVLSTIGAFGYRAAVFRNVLEAAKLDPSIYYTFISGPEIDPEQFSKVPENVEFTGFTENPFPYYKGSDLVITAGGHGTIMESLAFGLPILSFPDEKHAEQENNASVLEEAGYGKRMSYLTPPEVILACIREIFEDENYSKKTRRLMELAEVLDGPAAVRKFLEEKHRGLEHHHHHH	not soluble
MKILLVFDFDNTIIDDNSDTWIVQCAPNKKLPIELRDSYRKGFWTEFMGRVFKYLGDKGVREHEMKRAVTSLPFTPGMVELFNFIRKNKDKFDCIIISDSNSVFIDWVLEAASFHDIFDKVFTNPAAFNSNGHLTVENYHTHSCNRCPKNLCKKVVLIEFVDKQLQQGVNYTQIVYIGDGGNDVCPVTFLKNDDVAMPRKGYTLQKTLSRMSQNLEPMEYSVVVWSSGVDIISHLQFLIKD	not soluble
MKILYIVLDGAADSPTSPRKTLEEASKPNIDSLGSHAVCGMVYTVKPGVAPQSDYATLSLLGYNPDEYYPGRGPLEAFGAGIEMRRGDIALRANFATVDPGTLRIIDRRVGRSLTSREARELASAVDGMELEDGEGTALFRATIGHRGVLVLRHRSKPLSDAISNTDPAYERRGRFSVALEKYEPFIKLSNPLVEDEAAVLAARMLNEFTLKAVEILDSHPVNLAREKRGLLKANAILSRDAGGLPEEKPPSFQERFGLRGASIVEMVVERGISRYIGLDDIRVEIEGRAREEVYREEAARAVEALETHDLVYVHLKGPDEPGHDGSFEGKIRAVEDIDKHFFAPLLDRLSSAGLEPAFVVTSDHATPWDVGAHSGDPVPLMISHQSIQ	not soluble
MKINWTEVKEKIRPQISKPSYETWFTNTTVYLEDDILTIYCPNEFARDWLESHYKELVFNTLREMFNTTFEIQFDLCNGEPSNLKDVQKEKLSSWDEVKKALRPKIAEKTFMTWIRNTNATIKDNKVIIFCEDAFHRDLLEGEYKNIISSTVQKITDEEYQIWFEIESSATSNAQVHHVKNNQRTSGQEESKTIWNKIKDKIQLKISRPSYETWVKETTARINEDSLIIYFENEFQQEWVKKSYKDLISQIAKELTGNTYEIQFELKSNTTSNNEKSTIKDITSELGEQFKVSNNSLKYNDVDESNKRIRALEEKIMNLEKVIGTLVEKLDAVELKTQLEKLEHHHHHH	not soluble
MKIRVADEKELPMILQFLTEVKAYMDVVGITQWTKDYPSQGDIQEDITKKRLYLLVHEEMIFSMATFCMEQEQDFVWLKRFATSPNYIAKGYGSLLFHELEKRAVWEGRRKMYAQTNHTNHRMIRFFESKGFTKIHESLQMNRLDFGSFYLYVKELENQSIV	soluble
MKITLIIPTYNAGSLWPNVLDAIKQQTIYPDKLIVIDSGSKDETVPLASDLKNISIFNIDSKDFNHGGTRNLAVAKTLDADVIIFLTQDAILADSDAIKNLVYYFSDPLIAAVCGRQLPHKDANPLAVHARNFNYSSKSIVKSKADIEKLGIKTVFMSNSFAAYRRSVFEELSGFPEHTILAEDMFMAAKMIQAGYKVAYCAEAVVRHSHNYTPREEFQRYFDTGVFHACSPWIQRDFGGAGGEGFRFVKSEIQFLLKNAPFWIPRALLTTFAKFLGYKLGKHWQSLPLSTCRYFSMYKSYWNNIQYSSSKEIKLEHHHHHH	soluble
MKITTEALRWWEDGETVGGRDLVGGGTWLGCTRHGRLAFLTNFKEASSFPAAKSRGDLPLRYLQSEKSPAEFAEEIQDEISLYNGFNLVVAHVLSKSMIYITNRPPHGDKLVTQVSPGIHVLSNANLDSPWPKVNSPNCVFLSLQCLRLREGFQQLLAENGSGEFPVKTMVEEVMTNTVKDEETELPHVFTPETEYHLSSIFVDMQRPTGRYGTRSISAIIVKSHGDGGGDGEICFYERHLEEGDSWKEHTQQFVIIQNQSI	soluble
MKIVGIYLAAGKSRRTGPGLHKLYLPTGNTLLGNKALHTSLSSNLSDVIVVSNQPSWLLHYTQVERVHILSCEKSCLGQSYSLHCGLEKAESMNADGVVVMLADQPFITVKLLNSLIDSYEHLPQLDYVAASFQGIPQPPILFSKGIFPSLKKLKGDQGARSIFFDKSFQGKITVYSDAKLFYDVNTIEDYNVIKNSLLLEHHHHHH	not soluble
MKKAKSRIAILGTGGTIAGFIDSTIATTGYAAGAIDIDVLIKAVPQIRDLADISWEQIANIDSSNMCDEIWLRLAKKIAKLFAEGIDGVVITHGTDTMEETAYFLNLTIKSDKPVVLVGAMRPSTAISADGPKNLYNAVALVVNKEAKNKGVMVAINDKILSARGVVKTHSLNVDAFSSPDFGDLGYIVDGKVFFYNNVIKAHTKNAPFDVSKLTSLPKVDILYSYSNDGSGVAAKALFEHGTKGIVVAGSGAGSIHKNQKDVLKELLKKGLKVVVSSRVVAGCVAVSDSDEKLGFISAEDLNPQKARVLLMLALTKTSDPKKIQEYFLKY	soluble
MKKATCLTDDQRWQSVLARDPNADGEFVFAVRTTGIFCRPSCRARHALRENVSFYANASEALAAGFRPCKRCQPDKANPRQHRLDKITHACR	soluble
MKKDTDCTEILVGKTASMDGSTIVARNEDGYGPINPIKFIVHEAHDQTNASYTSVTTGVTVPLPDHAYRYTATPQADQSDGQYEEAGINELNVGMSATETTATNARVLGYDPLVHDGVDEEAMVTLVLPYIKSAKEGVQRLGALIEKYGTGESNSIAFNDHDDIWLFETAGGHHWGAVRMPEDTYAIVPNQTVVQEMDLNDTDNFLGASDLVDFVEKYHLNPTPGHFNFREIFGTQSEADAYYNTPRTWYGQKLFNPEIEQNPTDQNMPLFRQPSKKLAIEDVQFFLSSHYNGTPYDPFGTFASGNAREQTRYRSIAMDRNQCSSILQIRNDVPAKQAAIQWIALGFFAYAPYVPFFTNINDTPIDYRNTTSTVSVDNVYWLSKTLSVLIEPHWHEFAETVNAYRDECQSYARGRVAATDAAIAGNPTDFLTKANSETAAEISNRTHALFDTLVKQGLLLSKTTWEKGQNLLEHHHHHH	not soluble
MKKFTCVQDIGDLKSALAESFEIKKDRFKYVELGRNKTLLMIFFNSSLRTRLSTQKAALNLGMNVIVLDINQGAWKLETERGVIMDGDKPEHLLEAIPVMGCYCDIIGVRSFARFENREYDYNEVIINQFIQHSGRPVFSMEAATRHPLQSFADLITIEEYKKTARPKVVMTWAPHPRPLPQAVPNSFAEWMNATDYEFVITHPEGYELDPKFVGNARVEYDQMKAFEGADFIYAKNWAAYTGDNYGQILSTDRNWTVGDRQMAVTNNAYFMHCLPVRRNMIVTDDVIESPQSIVIPEAANREISATVVLKRLLENLPHHHHHH	soluble
MKKGCKYGTHRVIEPAGVLPQPAKKISNDMEIFSNEILIDVIALNIDSASFTQIEEEAGHDVEKVKAKIKEIVAERGKMQNPVTGSGGMLIGTVEKIGDDLVGKTDLKVGDKIATLVSLSLTPLRIDEIINIKPEIDRVEIKGKAILFESGIYAVLPKDMPENLALAALDVAGAPAQVAKLVKPCQSVAILGSAGKSGMLCAYEAVKRVGPTGKVIGVVRNDKEKALLQRVSDKVKIVIADATKPMDVLHAVLEANDAKEVDVAINCVNVPNTEMSTILPVKEFGIAYFFSMATGFSKAALGAEGVGKDITMIVGNGYTVDHAAITLEELRESAVLREIFNEIYLLEHHHHHH	soluble
MKKIGIIGGGQLGKMMTLEAKKMGFYVIVLDPTPRSPAGQVADEQIVAGFFDSERIEDLVKGSDVTTYDLEHIDVQTLKKLYNEGYKIHPSPYTLEIIQDKFVQKEFLKKNGIPVPEYKLVKDLESDVREFGFPVVQKARKGGYDGRGVFIIKNEKDLENAIKGETYLEEFVEIEKELAVMVARNEKGEIACYPVVEMYFDEDANICDTVIAPARIEEKYSKIAREIATSVVEALEGVGIFGIEMFLTKQGEILVNEIAPRPHNSGHYTIEACVTSQFEQHIRAIMNLPLGSTELLIPAVMVNLLGEEGYYGKPALIGLEEALAIEGLSLHFYGKKETRPYRKMGHFTVVDRDVERALEKALRAKKILKVVSEEGAMCQG	soluble
MKKIMTIFGTRPEAIKMAPLVKALEQEKMLEPIVVVTAQHREMLDSVLSTFEIKPKYDLNIMKSGQTLSEITSKSITQLEQVIQLEKPDMVLVHGDTMTTFAGGLAAFYNQVPIGHVEAGLRSYDKYSPFPEEVNRQLVGVLADLHFAPTKNAASHLLSEGKYSESVVVTGNTAIDAMKYTVDDNYKSNIMDKYHDKKFILMTAHRRENIGKPMENIFKAVRRLIDEYTDLALVYPMHKNPKVREVAQKILGSHDRIELIEPLDVVDFHNFAKKSYFILTDSGGIQEEAPSFNKPVLVLRSVTERPEGVEAGTLKVIGTNKQNVYQAAKELIDDERLYHQMSEASNPYGDGFASERIVNHIKYYLNLITEKPSDF	not soluble
